In data set [1] the target is T1, BSA (bovine, UniProt P02769 25-607).
T1 construct: Control on the protein microarray; also called bovine serum albumin
Kind of data set: protein microarray probed with biotinylated PTTG1, Streptavidin-Alexa Fluor 647. As to the method:
The human Protoarray nc3.0 study was performed as described by the manufacturer (obtained from Invitrogen Corporation; Carlsbad, Calif.). […] Arrays were scanned by GenePix 4000B (obtained from Molecular Devices Corporation; Sunnyvale, Calif.), and images analyzed using ProtoArray Prospector (Invitrogen).

The target in data set [2] is control His-GST protein.
In data set [3] the target is T2, His-tagged PTTG1.
T2 chain: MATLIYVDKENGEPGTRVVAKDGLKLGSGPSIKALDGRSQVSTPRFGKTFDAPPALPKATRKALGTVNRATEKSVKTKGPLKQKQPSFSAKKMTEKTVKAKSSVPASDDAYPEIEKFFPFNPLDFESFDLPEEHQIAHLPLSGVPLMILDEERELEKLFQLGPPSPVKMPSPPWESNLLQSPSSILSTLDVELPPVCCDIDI

T1 sequence (P02769 25-607 limits assumed): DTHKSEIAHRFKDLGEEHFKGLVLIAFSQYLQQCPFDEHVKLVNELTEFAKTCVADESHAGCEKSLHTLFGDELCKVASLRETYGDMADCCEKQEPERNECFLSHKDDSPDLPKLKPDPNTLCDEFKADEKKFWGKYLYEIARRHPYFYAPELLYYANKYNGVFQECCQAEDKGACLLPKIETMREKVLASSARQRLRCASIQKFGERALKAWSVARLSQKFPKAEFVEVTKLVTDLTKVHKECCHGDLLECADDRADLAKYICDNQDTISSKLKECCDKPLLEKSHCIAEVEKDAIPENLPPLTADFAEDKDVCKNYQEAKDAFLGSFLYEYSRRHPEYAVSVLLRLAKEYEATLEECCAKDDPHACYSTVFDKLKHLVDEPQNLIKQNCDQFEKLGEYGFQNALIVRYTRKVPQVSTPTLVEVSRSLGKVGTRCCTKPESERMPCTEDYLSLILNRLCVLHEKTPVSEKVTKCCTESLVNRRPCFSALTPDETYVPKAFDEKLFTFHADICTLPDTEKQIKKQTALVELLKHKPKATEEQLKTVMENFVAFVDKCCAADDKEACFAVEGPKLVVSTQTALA

B1: pituitary tumor transforming gene 1 (PTTG1) protein (other)
chain: T2 chain
modifications: biotinylated with biotin-XX sulfosuccinimidyl ester (protein array); biotin-lysine labeled during synthesis (as prey in pull-down); endogenous and unlabeled in co-immunoprecipitation
notes: Used as biotinylated probe on the array, as endogenous protein of HCT116 lysates in co-IP, and as in vitro translated prey in the pull-down; also called securin
B1: the binding result in data set [1] is “no binding”.

B2: GST-Aurora Kinase A (protein)
chain: MDRSKENCISGPVKATAPVGGPKRVLVTQQFPCQNPLPVNSGQAQRVLCPSNSSQRIPLQAQKLVSSHKPVQNQKQKQLQATSVPHPVSRPLNNTQKSKQPLPSAPENNPEEELASKQKNEESKKRQWALEDFEIGRPLGKGKFGNVYLAREKQSKFILALKVLFKAQLEKAGVEHQLRREVEIQSHLRHPNILRLYGYFHDATRVYLILEYAPLGTVYRELQKLSKFDEQRTATYITELANALSYCHSKRVIHRDIKPENLLLGSAGELKIADFGWSVHAPSSRRTTLCGTLDYLPPEMIEGRMHDEKVDLWSLGVLCYEFLVGKPPFEANTYQETYKRISRVEFTFPDFVTEGARDLISRLLKHNPSQRPMLREVLEHPWITANSSKPSNCQNKESASKQS
In the case of B2, the “Aurora Kinase A phosphorylation of histone H3 (Ser10), in vitro kinase assay, Western blot” value in data set [2] is given as “GST-His has no effect at the same concentration”; in data set [3], “Addition of PTTG1 dose-dependently inhibited Aurora Kinase A histone H3 phosphorylation”.

The values above are taken from patent US20110009473A1 (CEDARS SINAI MEDICAL CENTER, published 2011).
